# T1: fibrinogen (UniProt P02671-2 20-644; P02675 31-491; P02679-2 27-437)
# T1 construct: fibrinogen alpha chain; fibrinogen beta chain; fibrinogen gamma chain; Named only as fibrinogen; also called Fg
# T1 sequence (looked up) 1: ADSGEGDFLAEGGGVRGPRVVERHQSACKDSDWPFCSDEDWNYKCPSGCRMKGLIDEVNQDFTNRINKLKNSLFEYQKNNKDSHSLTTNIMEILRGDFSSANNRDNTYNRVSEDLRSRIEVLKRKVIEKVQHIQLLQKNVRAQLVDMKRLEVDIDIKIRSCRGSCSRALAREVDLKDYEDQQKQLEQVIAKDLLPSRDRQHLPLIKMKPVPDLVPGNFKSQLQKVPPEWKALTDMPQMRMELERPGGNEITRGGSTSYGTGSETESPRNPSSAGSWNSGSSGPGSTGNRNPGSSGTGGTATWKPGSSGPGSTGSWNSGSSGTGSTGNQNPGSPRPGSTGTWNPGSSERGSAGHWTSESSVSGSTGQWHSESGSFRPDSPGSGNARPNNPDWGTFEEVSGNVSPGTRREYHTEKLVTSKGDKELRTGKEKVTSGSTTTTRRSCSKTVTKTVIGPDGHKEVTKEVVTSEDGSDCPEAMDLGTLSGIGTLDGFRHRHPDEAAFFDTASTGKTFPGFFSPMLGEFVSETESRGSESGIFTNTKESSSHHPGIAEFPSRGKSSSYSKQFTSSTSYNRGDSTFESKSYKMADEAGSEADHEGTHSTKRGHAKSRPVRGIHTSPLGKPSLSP
# T1 sequence (looked up) 2: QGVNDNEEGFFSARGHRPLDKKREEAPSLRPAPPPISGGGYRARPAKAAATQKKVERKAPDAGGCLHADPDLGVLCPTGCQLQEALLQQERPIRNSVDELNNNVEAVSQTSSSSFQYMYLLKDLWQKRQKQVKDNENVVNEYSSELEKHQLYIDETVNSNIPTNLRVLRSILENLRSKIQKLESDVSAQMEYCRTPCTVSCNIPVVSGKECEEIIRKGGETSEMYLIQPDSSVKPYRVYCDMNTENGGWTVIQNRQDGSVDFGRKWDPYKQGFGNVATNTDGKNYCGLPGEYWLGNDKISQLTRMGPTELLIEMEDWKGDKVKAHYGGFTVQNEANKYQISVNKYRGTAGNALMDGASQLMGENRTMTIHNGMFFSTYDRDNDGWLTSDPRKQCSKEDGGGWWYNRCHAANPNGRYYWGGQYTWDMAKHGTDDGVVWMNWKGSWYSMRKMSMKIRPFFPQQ
# T1 sequence (looked up) 3: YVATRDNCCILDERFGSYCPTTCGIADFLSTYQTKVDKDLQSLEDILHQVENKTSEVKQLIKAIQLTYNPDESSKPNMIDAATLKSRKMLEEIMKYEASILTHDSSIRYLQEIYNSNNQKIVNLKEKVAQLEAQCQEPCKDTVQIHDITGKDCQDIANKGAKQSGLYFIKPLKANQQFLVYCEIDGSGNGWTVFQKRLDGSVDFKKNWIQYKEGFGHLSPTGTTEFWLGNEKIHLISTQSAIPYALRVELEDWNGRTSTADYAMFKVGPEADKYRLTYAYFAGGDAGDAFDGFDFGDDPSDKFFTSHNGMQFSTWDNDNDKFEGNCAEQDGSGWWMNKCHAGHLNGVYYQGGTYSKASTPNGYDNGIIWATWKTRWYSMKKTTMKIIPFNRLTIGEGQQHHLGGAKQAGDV
# Legend:
# [1] = biological target: fibronectin (Homo sapiens) (UniProt P02751); experiment: SPR; conditions: cited from earlier work
# [2] = biological target: fibrinogen (Homo sapiens) (UniProt P02671); experiment: SPR; conditions: cited from earlier work
# [3] = biological target: vitronectin (Homo sapiens) (UniProt P04004); experiment: SPR; conditions: cited from earlier work
# vitronectin = experiment: ELISA; matrix component (0.25 ug/well in 0.1 M Na2CO3, overnight 4 C) immobilised on polystyrene plates; Emp forms 0-1.5 uM added for 1 h at RT, PBST washes; detected with polyclonal anti-Emp IgG and AP-conjugated anti-rabbit IgG; KD from steady-state curves, one-site binding model
# collagen I = biological target: T2, collagen I (UniProt P02452 162-1218; P08123 80-1119); experiment: as above; conditions: both partners purified
# T2 construct: collagen alpha-1(I) chain; collagen alpha-2(I) chain; Named only as collagen I; also called Cn I; Cn l
# fibronectin = fibronectin (UniProt P02751 32-2477); experiment: as above; conditions: both partners purified
# fibrinogen = biological target: T1, fibrinogen; experiment: as above; conditions: both partners purified
# T2 sequence (P02452 162-1218, chain 1 of 2): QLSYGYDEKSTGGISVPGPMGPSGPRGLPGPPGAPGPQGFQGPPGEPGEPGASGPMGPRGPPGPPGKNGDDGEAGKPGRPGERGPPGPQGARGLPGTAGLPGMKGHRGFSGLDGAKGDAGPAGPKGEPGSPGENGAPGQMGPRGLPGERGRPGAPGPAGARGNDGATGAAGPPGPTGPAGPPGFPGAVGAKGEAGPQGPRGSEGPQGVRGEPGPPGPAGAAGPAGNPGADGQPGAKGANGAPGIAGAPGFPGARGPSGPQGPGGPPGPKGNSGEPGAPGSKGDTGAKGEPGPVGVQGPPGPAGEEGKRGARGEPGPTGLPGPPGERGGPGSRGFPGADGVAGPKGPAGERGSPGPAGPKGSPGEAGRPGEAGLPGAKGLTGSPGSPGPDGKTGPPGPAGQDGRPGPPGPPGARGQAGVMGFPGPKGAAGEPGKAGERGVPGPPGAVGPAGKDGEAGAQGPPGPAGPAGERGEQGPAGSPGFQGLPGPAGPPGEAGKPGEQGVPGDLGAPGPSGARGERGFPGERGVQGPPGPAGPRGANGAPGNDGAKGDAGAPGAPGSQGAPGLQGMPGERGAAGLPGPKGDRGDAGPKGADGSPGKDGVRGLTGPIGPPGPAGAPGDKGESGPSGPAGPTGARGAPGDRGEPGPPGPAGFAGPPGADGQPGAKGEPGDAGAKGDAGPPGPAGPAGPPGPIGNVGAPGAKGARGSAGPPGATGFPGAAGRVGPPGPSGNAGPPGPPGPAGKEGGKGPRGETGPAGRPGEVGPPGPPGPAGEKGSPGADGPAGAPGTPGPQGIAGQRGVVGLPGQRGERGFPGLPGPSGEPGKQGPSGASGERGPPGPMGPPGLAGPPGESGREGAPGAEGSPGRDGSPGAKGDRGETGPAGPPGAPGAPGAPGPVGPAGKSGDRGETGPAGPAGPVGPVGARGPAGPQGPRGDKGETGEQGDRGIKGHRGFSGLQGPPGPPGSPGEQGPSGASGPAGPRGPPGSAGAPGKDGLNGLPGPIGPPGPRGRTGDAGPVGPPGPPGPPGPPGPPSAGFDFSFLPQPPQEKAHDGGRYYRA
# T2 sequence (P08123 80-1119, chain 2 of 2): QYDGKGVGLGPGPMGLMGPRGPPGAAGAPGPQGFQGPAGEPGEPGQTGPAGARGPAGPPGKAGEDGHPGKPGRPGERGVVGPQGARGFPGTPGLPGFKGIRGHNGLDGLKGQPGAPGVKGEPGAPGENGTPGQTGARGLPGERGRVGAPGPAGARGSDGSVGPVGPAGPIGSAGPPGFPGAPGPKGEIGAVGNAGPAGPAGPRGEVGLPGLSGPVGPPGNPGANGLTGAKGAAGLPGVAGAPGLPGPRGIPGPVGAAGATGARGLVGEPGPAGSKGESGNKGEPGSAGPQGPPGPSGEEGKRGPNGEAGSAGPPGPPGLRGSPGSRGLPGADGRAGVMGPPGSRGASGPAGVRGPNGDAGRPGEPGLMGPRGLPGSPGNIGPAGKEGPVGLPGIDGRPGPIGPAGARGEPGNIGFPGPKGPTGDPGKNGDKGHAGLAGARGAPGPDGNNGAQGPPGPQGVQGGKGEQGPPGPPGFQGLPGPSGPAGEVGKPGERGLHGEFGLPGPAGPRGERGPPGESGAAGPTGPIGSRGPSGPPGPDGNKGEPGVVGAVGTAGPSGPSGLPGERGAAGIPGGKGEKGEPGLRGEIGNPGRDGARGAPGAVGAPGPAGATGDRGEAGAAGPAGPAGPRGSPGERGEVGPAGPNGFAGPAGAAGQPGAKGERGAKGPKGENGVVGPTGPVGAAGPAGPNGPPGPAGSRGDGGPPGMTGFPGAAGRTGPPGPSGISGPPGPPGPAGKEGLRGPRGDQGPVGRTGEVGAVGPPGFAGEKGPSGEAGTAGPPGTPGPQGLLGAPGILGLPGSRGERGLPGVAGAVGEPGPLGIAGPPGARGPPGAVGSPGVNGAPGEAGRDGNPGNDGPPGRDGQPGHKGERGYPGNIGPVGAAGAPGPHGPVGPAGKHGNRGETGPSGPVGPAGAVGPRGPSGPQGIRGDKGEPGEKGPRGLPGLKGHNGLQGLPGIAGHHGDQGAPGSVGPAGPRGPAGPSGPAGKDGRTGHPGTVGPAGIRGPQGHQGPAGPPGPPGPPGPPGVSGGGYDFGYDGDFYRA
# Chain of fibronectin (P02751 32-2477): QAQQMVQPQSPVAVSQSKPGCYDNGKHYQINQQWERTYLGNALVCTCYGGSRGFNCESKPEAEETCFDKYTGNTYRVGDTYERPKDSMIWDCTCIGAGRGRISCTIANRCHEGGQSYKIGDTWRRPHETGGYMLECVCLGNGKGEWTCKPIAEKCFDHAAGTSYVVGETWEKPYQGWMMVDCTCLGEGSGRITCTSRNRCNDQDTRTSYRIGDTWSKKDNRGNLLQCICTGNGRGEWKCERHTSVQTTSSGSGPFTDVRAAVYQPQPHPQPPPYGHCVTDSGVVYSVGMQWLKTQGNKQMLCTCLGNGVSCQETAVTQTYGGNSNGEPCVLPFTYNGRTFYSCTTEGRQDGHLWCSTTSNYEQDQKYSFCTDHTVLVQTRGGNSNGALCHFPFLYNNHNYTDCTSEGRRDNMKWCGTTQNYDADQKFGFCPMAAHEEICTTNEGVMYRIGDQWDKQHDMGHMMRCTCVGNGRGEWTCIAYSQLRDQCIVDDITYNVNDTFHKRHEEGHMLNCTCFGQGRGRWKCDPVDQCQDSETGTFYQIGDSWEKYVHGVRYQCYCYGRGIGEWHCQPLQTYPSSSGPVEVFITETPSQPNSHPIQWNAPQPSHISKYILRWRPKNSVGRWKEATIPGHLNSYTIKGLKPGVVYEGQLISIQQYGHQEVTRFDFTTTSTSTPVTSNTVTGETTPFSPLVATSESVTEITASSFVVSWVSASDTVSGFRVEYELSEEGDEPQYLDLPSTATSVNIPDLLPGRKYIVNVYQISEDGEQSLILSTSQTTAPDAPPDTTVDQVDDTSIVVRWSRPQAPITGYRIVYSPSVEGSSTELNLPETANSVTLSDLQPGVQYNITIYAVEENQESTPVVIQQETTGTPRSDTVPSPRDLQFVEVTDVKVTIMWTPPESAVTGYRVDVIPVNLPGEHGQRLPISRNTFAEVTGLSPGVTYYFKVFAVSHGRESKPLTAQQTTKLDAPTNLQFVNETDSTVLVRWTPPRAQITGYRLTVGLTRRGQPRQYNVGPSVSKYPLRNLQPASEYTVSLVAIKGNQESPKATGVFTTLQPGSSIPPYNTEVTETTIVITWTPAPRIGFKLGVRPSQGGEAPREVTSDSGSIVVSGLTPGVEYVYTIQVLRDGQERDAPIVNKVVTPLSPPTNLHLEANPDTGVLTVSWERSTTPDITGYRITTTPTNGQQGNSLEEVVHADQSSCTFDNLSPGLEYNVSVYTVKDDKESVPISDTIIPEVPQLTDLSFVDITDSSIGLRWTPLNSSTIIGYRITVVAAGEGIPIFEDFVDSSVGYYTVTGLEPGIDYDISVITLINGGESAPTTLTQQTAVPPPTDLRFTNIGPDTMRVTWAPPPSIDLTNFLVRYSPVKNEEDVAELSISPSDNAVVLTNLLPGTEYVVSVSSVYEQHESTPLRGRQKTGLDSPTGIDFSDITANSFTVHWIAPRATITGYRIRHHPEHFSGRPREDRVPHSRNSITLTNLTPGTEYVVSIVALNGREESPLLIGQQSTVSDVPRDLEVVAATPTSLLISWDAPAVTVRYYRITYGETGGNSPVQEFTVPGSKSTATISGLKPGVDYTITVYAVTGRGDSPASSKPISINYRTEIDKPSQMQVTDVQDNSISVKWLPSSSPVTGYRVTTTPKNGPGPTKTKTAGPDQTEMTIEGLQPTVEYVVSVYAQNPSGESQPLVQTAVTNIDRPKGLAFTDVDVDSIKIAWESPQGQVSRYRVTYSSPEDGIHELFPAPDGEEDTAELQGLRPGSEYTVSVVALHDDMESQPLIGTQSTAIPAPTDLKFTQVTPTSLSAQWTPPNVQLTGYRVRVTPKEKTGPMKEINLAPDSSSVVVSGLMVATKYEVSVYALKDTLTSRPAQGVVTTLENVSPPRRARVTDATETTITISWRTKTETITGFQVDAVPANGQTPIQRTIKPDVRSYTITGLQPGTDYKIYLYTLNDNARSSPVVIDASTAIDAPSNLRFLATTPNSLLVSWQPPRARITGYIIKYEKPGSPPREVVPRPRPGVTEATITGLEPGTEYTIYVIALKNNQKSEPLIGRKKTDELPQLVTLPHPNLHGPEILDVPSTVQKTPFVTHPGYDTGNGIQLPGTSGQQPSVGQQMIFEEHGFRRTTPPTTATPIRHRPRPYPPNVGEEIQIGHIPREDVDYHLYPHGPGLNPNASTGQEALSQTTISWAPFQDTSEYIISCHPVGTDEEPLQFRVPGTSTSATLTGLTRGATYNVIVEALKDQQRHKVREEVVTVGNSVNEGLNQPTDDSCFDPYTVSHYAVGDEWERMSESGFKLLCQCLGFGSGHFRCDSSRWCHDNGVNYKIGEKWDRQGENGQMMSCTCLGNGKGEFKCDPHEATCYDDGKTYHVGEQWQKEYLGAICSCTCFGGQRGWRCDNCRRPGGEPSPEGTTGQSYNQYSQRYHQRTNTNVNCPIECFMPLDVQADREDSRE
# Chain of vitronectin (P04004 20-478): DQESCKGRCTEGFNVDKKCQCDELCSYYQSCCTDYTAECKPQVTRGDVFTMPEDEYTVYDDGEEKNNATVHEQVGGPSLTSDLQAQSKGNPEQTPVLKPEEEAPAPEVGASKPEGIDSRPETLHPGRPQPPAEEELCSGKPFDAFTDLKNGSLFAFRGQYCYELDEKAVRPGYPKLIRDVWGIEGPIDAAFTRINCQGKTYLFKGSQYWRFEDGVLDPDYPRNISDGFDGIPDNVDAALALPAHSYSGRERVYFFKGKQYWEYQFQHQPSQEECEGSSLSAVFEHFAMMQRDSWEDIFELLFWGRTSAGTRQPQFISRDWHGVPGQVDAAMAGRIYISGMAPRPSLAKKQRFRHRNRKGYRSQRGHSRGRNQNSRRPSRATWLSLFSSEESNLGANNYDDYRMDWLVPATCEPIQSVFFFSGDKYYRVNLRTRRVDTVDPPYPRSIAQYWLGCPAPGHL
# Chain of fibronectin (Homo sapiens) (P02751 32-2477): as the sequence (P02751 32-2477) above
# Chain of vitronectin (Homo sapiens) (P04004 399-478): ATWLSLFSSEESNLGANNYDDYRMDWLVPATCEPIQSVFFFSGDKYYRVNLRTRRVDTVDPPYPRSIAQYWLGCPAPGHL
Molecule,Kd [1] [nM],Kd [2] [nM],Kd [3] [nM],Kd (vitronectin) [nM],Kd (collagen I) [nM],Kd (fibronectin) [nM],Kd (fibrinogen) [nM]
Emp (from UniProt Q7A6P4),21,91,0.122,–,–,–,–
"full-length Emp protein (extracellular matrix protein Emp of Staphylococcus aureus, without the signal peptide) (natural protein, gene of 1,023 nucleotides; numbers count on: the protein without signal peptide and without His-tag; The vector (printed pQ30-UA, Qiagen) probably adds an N-terminal His6 (surmised); Primer EmpFor1UA starts at nt +76 (codon 26), which would give 315 residues against the printed 314; also called EmpFL; source: E. coli (TG1 transformants, plasmid pQemp), purified (Ni-NTA in 8 M urea, solubilized by …)) SVTESVDKKFVVPESGINKIIPAYDEFKNSPKVNVSNLTDNKNFVASEDKLNKIADSSAASKIVDKNFVVPESKLGNIVPEYKEINNRVNVATNNPASQQVDKHFVAKGPEVNRFITQNKVNHHFITTQTHYKKVITSYKSTHVHKHVNHAKDSINKHFIVKPSESPRYTHPSQSLIIKHHFAVPGYHAHKFVTPGHASIKINHFCVVPQINSFKVIPPYGHNSHRMHVPSFQNNTTATHQNAKVNKAYDYKYFYSYKVVKGVKKYFSFSQSNGYKIGKPSLNIKNVNYQYAVPSYSPTHYVPEFKGSLPAPRV",–,–,–,34,27 ± 5,43 ± 11,70 ± 1
"Emp1+2 (combination of Emp1 and Emp2) (domain or fragment, limits worked out from these positions and count on the precursor; source: E. coli (TG1 transformants, plasmid pQemp1 + 2), purified (Ni-NTA in 8 M urea, solubilized by stepwise dialysis)) ASVTESVDKKFVVPESGINKIIPAYDEFKNSPKVNVSNLTDNKNFVASEDKLNKIADSSAASKIVDKNFVVPESKLGNIVPEYKEINNRVNVATNNPASQQVDKHFVAKGPEVNRFITQNKVNHHFITTQTHYKKVITSYKSTHVHKHVNHAKDSINKHFIVKPSESPRYTHPSQSLIIKHHFAVPGYHAH",–,–,–,9,31 ± 5,3 ± 2,14 ± 3
"Emp2+3 (combination of Emp2 and Emp3; N-truncated Emp) (domain or fragment, limits worked out from these positions and count on the precursor; source: E. coli (TG1 transformants, plasmid pQemp2 + 3), purified (Ni-NTA in 8 M urea, solubilized by stepwise dialysis)) YKEINNRVNVATNNPASQQVDKHFVAKGPEVNRFITQNKVNHHFITTQTHYKKVITSYKSTHVHKHVNHAKDSINKHFIVKPSESPRYTHPSQSLIIKHHFAVPGYHAHKFVTPGHASIKINHFCVVPQINSFKVIPPYGHNSHRMHVPSFQNNTTATHQNAKVNKAYDYKYFYSYKVVKGVKKYFSFSQSNGYKIGKPSLNIKNVNYQYAVPSYSPTHYVPEFKGSLPAPRV",–,–,–,200,207 ± 44,404 ± 95,556 ± 115
"Emp2 (central fragment of Emp) (domain or fragment, primers EmpFor2UA (+322) and EmpRev2UA (+648) relative to ATG; limits worked out from these positions and count on the precursor; source: E. coli (TG1 transformants, plasmid pQemp2), purified (Ni-NTA in 8 M urea, solubilized by stepwise dialysis)) YKEINNRVNVATNNPASQQVDKHFVAKGPEVNRFITQNKVNHHFITTQTHYKKVITSYKSTHVHKHVNHAKDSINKHFIVKPSESPRYTHPSQSLIIKHHFAVPGYHAH",–,–,–,18,13 ± 6,8 ± 3,9 ± 2.6
"Emp3 (C-terminal fragment of Emp) (domain or fragment, primers EmpFor3UA (+622) and EmpRev3UA (+1024, holds the stop codon) relative to ATG; limits worked out from these positions and count on the precursor; source: E. coli (TG1 transformants, plasmid pQemp3), purified (Ni-NTA in 8 M urea, solubilized by stepwise dialysis)) FAVPGYHAHKFVTPGHASIKINHFCVVPQINSFKVIPPYGHNSHRMHVPSFQNNTTATHQNAKVNKAYDYKYFYSYKVVKGVKKYFSFSQSNGYKIGKPSLNIKNVNYQYAVPSYSPTHYVPEFKGSLPAPRV",–,–,–,449,32 ± 7,311 ± 79,756 ± 224

# — article PMC5651841, “The Staphylococcus aureus extracellular matrix protein (Emp) has a fibrous structure and binds to different extracellular matrices” (Scientific Reports, 2017)
